This assay addresses gHgLgO249 complex of 131stop-gO249 virions (human cytomegalovirus, strain TB40/E). Put plainly: co-IP + pull-down; gB co-precipitated with gHgLgO from 131stop and 131stop-gO249 virion lysates using anti-gH antibody 14-4b or PDGFRα-Fc; WB, ImageJ; gO precipitation levels normalized and relative gB levels determined.

As for “glycoprotein gB of HCMV virions (natural protein)”, the fold change of co-precipitated gB against gHgLgOWT stood at 4 fold.

(Values after paper PMC12316387.)
